From the supplement of paper PMC7877785
± gives the uncertainty stated by the source.

Assay: self-splicing fitness, log relative to wild type (ln ratio); higher = more splicing; Tetrahymena group I intron in knt gene, E. coli kanamycin selection, DiMSum; sequences stand for … in CUCUCU…GGAGGGAAAAGUUAUCAGGCAUGCACCUGGUAGCUAGUCUUUAAACCAAUAGAUUGCAUCGGUUUAAAAGGCAAGACCGUCAAAUUGCGGGAAAGGGGUCAACAGCCGUUCAGUACCAAGUCUCAGGGGAAACUUUGAGAUGGCCUUGCAAAGGGUAUGGUAAUAAGCUGACGGACAUGGUCCUAACCACGCAGCCAAGUCCUAAGUCAACAGAUCUUCUGUUGAUAUGGAUGCAGUUCACAGACUAAAUGUCGGUCGGGGAAGAUGUAUUCUUCUCAUAAGAUAUAGUCGGACCUCUCCUUAAUGGGAGCUAGCGGAUGAAGUGAUGCAACACUGGAGCCGCUGGGAACUAAUUUGUAUGCGAAAGUAUAUUGAUUAGUUUUGGAGUACUCGUGGUCG
Outline: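 Library with all eight P1ex-region intron nucleotides randomised, intron inside the knt kanamycin-resistance gene on pET-22b(+), in E. coli BL21(DE3). Cells grew overnight at 37°C or 30°C on LB agar with or without 25 μg/mL kanamycin (plus 100 μg/mL carbenicillin, 50 μM IPTG, 0.2% rhamnose), in six replicate transformations. Pooled colonies were amplicon-sequenced on Illumina HiSeq 2500. DiMSum fitness is the error-weighted combination of wild-type-normalised replicate fold changes, kanamycin versus none.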

Sequence	self-splicing fitness (ln) (30 °C)	self-splicing fitness (ln) (37 °C)
GGCAAGCAAUAUUACGCGUA	-0.585 ± 0.065	-0.212 ± 0.076
AGCCAGCAAUAUUACGUCAG	-3.58 ± 0.17	-2.77 ± 0.23
AUAUAGCAAUAUUACGGGGA	-2.21 ± 0.32	-1.72 ± 0.41
AAAGAGCAAUAUUACGUGGA	-3.36 ± 0.32	-2.67 ± 0.26
GUGCAGCAAUAUUACGAGGU	-3.63 ± 0.3	-2.47 ± 0.21
AGUAAGCAAUAUUACGCAUG	-3.12 ± 0.17	-1.95 ± 0.23
CUGUAGCAAUAUUACGCUGC	-3.17 ± 0.3	–
ACGUAGCAAUAUUACGCAUU	-2.8 ± 0.17	-0.657 ± 0.11
GCGUAGCAAUAUUACGGACU	-0.176 ± 0.13	-0.78 ± 0.19
CAGAAGCAAUAUUACGAUAA	-2.32 ± 0.17	-2.02 ± 0.26
GGACAGCAAUAUUACGCAUC	-3 ± 0.12	-0.76 ± 0.13
AACUAGCAAUAUUACGGCUG	-1.02 ± 0.098	-0.0943 ± 0.15
CACUAGCAAUAUUACGAUCA	-2.46 ± 0.17	-1.22 ± 0.16
AAUCAGCAAUAUUACGUAGU	-0.0974 ± 0.059	0.211 ± 0.074
AUGAAGCAAUAUUACGGCGU	0.47 ± 0.064	0.205 ± 0.078
GACAAGCAAUAUUACGAUGC	-1.44 ± 0.091	-0.732 ± 0.11
UCCCAGCAAUAUUACGUUAG	-4.08 ± 0.19	-2.78 ± 0.18
AUUCAGCAAUAUUACGAAGC	-3.62 ± 0.27	-1.32 ± 0.17
GAGUAGCAAUAUUACGACCC	0.0573 ± 0.39	–
CCCAAGCAAUAUUACGAACU	-3.54 ± 0.34	-2.91 ± 0.38
GUUCAGCAAUAUUACGUAAG	-0.609 ± 0.061	0.5 ± 0.083
UUACAGCAAUAUUACGUGCG	-0.895 ± 0.092	-0.0854 ± 0.12
GAAAAGCAAUAUUACGACGU	0.263 ± 0.088	0.769 ± 0.099
UUCUAGCAAUAUUACGCCUU	-3.43 ± 0.21	-2.57 ± 0.15
CCGUAGCAAUAUUACGGGAG	-3.35 ± 0.19	-2.97 ± 0.18

Sequence	self-splicing fitness (ln) (30 °C)	self-splicing fitness (ln) (37 °C)
GGGCAGCAAUAUUACGUUAU	-1.68 ± 0.097	-0.345 ± 0.12
UGUAAGCAAUAUUACGCCGU	-2.48 ± 0.26	-3.08 ± 0.47
GACAAGCAAUAUUACGUCGC	-3.86 ± 0.25	-2.1 ± 0.21
CUUAAGCAAUAUUACGGAGU	-2.92 ± 0.099	-2.31 ± 0.12
GCGCAGCAAUAUUACGCACC	-3.7 ± 0.2	-2.41 ± 0.25
GUCUAGCAAUAUUACGCGUA	-0.384 ± 0.081	0.391 ± 0.09
AUAGAGCAAUAUUACGCUCG	-0.665 ± 0.41	0.704 ± 0.38
CGCCAGCAAUAUUACGAACC	-2.23 ± 0.22	-2.02 ± 0.43
GUACAGCAAUAUUACGAUAG	-3.23 ± 0.16	-0.84 ± 0.13
ACGAAGCAAUAUUACGUACA	-2.13 ± 0.13	-1.06 ± 0.12
CUUGAGCAAUAUUACGCUCU	-2.57 ± 0.5	-1.13 ± 0.33
CGUGAGCAAUAUUACGCAUU	-4.1 ± 0.47	-2.15 ± 0.19
UUGGAGCAAUAUUACGCGAU	-2.54 ± 0.33	-0.423 ± 0.35
UUGGAGCAAUAUUACGACAC	–	-2.36 ± 0.37
GGGAAGCAAUAUUACGCUCA	–	-0.0289 ± 0.38
GGGUAGCAAUAUUACGAUAA	-1.67 ± 0.13	0.147 ± 0.16
UCGAAGCAAUAUUACGCAUG	-1.2 ± 0.085	-0.698 ± 0.1
UAGAAGCAAUAUUACGUCGA	-1.61 ± 0.14	-0.578 ± 0.14
AGAUAGCAAUAUUACGCUUG	-2.48 ± 0.12	-0.783 ± 0.13
CAUUAGCAAUAUUACGAGCG	0.0198 ± 0.086	0.256 ± 0.098
GCCUAGCAAUAUUACGGAGA	-1.16 ± 0.11	-1.06 ± 0.11
AAAAAGCAAUAUUACGCGAU	-2.51 ± 0.16	-1.07 ± 0.14
UUUUAGCAAUAUUACGGCGA	-0.835 ± 0.17	0.114 ± 0.18
AAUCAGCAAUAUUACGUUCU	0.0868 ± 0.061	0.0857 ± 0.085
